In patent US20250361288A1 (Gilead, published 2025) one finds binding result and EC50 data, which are given here for 24 molecules.

Sequences and labels used below:
T1: human HVEM extracellular domain fused with an Fc fragment at the C-terminus (human, UniProt Q92956 39-202)
T1 construct: extracellular domain; Bought; also called hHVEM; not shown: Fc fragment at the C-terminus
T1 sequence (looked up): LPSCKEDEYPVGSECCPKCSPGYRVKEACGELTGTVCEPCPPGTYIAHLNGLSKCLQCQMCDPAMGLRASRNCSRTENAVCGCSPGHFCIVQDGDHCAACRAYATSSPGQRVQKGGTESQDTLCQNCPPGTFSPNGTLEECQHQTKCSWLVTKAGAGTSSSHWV

T2: mouse HVEM extracellular domain fused with an Fc fragment at the C-terminus (mouse, UniProt Q80WM9 39-206, limits assumed)
T2 construct: extracellular domain; Bought; also called mHVEM; not shown: Fc fragment at the C-terminus
T2 sequence (looked up): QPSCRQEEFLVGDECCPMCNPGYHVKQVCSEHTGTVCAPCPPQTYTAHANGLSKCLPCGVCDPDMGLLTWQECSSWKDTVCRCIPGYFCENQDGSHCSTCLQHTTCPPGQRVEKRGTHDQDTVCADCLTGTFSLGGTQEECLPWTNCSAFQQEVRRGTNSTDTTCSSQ

B1: LIGHT-32 (ligand)
chain: DGPAGSWEQLIQERRSHEVNPAAHLTGANSSLTGSGGPLLWETQLGLAFLRGLSYHDGALVVTKAGYYYIYSKVQLGGVGCPLGLARTITHGLYKRTPRYPEELELLVSQQSPCGRATSSSRVWWDSSFLGGVVHLEAGEKVVVRVSDERLVRLRDGTRSYFGAFMV
notes: Printed mutations: S160R, L220S; Soluble protein carries an N-terminal His tag
B2: LIGHT-48 (ligand)
chain: B1 chain with L47P, R87S, S147R
notes: Printed mutations: L120P, L220R; Soluble protein carries an N-terminal His tag
B3: LIGHT-47 (ligand)
chain: B1 chain with L53M, R87S, A117V, H135Y, S147L
notes: Printed mutations: L126M, A190V, H208Y; Soluble protein carries an N-terminal His tag
B4: LIGHT-10 (ligand)
chain: B1 chain with G77S, R87S, T88P
notes: Printed mutations: G150S, T161P, L220S; Soluble protein carries an N-terminal His tag
B5: LIGHT-29 (ligand)
chain: B1 chain with R87N
notes: Printed mutations: S160N, L220S; Soluble protein carries an N-terminal His tag
B6: LIGHT-33 (ligand)
chain: B1 chain with R87S, T88P
notes: Printed mutations: T161P, L220S; Soluble protein carries an N-terminal His tag
B7: LIGHT-20 (ligand)
chain: B1 chain with R87A, E149D
notes: Printed mutations: S160A, L220S, E222D; Soluble protein carries an N-terminal His tag
B8: LIGHT-16 (ligand)
chain: B1 chain with Q44H, L85M, R87S, E140D, S147L
notes: Printed mutations: Q117H, L158M, E213D; Soluble protein carries an N-terminal His tag
B9: LIGHT-40 (ligand)
chain: B1 chain with L83P, R87S, H135Y, S147L
notes: Printed mutations: L156P, H208Y; Soluble protein carries an N-terminal His tag
B10: LIGHT-17 (ligand)
chain: B1 chain with Q44N, R87S, H135Y, S147L
notes: Printed mutations: H208Y, Q117N; Soluble protein carries an N-terminal His tag
B11: LIGHT-26 (ligand)
chain: B1 chain with R87H, E149Q
notes: Printed mutations: S160H, L220S, E222Q; Soluble protein carries an N-terminal His tag
B12: LIGHT-24 (ligand)
chain: B1 chain with R87G, A117T
notes: Printed mutations: S160G, A190T, L220S; Soluble protein carries an N-terminal His tag
B13: LIGHT-21 (ligand)
chain: B1 chain with R87G, T88P, S147T
notes: Printed mutations: S160G, T161P, L220T; Soluble protein carries an N-terminal His tag
B14: LIGHT-27 (ligand)
chain: B1 chain with R87N, T88S, E149D
notes: Printed mutations: S160N, T161S, L220S, E222D; Soluble protein carries an N-terminal His tag
B15: LIGHT-30 (ligand)
chain: B1 chain with T88N
notes: Printed mutations: S160R, T161N, L220S; Soluble protein carries an N-terminal His tag
B16: LIGHT-25 (ligand)
chain: B1 chain with R87H
notes: Printed mutations: S160H, L220S; Soluble protein carries an N-terminal His tag
B17: LIGHT-46 (ligand)
chain: B1 chain with L53M, R87S, K141E, S147L
notes: Printed mutations: L126M, K214E; Soluble protein carries an N-terminal His tag
B18: LIGHT-28 (ligand)
chain: B1 chain with R87N, K141E, S147L, L154M
notes: Printed mutations: S160N, K214E, L227M; Soluble protein carries an N-terminal His tag
B19: LIGHT-22 (ligand)
chain: B1 chain with R87G, T88S
notes: Printed mutations: S160G, T161S, L220S; Soluble protein carries an N-terminal His tag
B20: LIGHT-15 (ligand)
chain: B1 chain with Q44E, R87S, E102K, K141E, S147L, L154T
notes: Printed mutations: Q117E, E175K, K214E, L227T; Soluble protein carries an N-terminal His tag
B21: LIGHT-23 (ligand)
chain: B1 chain with R87G
notes: Printed mutations: S160G, L220S; Soluble protein carries an N-terminal His tag
B22: LIGHT-19 (ligand)
chain: B1 chain with T63S, L83P, R87G, S147M
notes: Soluble protein carries an N-terminal His tag
B23: LIGHT-18 (ligand)
chain: B1 chain with V62I, L85Q, R87S, K141E, S147L, E149K
notes: as for B22
B24: LIGHT-14 (ligand)
chain: B1 chain with T43S, L85Q, R87S, L93M, S147L
notes: as for B22

Substitutions are numbered along the chain they refer to. In names and notes the source's numbering stands.

T4 sequence (P36941 31-227): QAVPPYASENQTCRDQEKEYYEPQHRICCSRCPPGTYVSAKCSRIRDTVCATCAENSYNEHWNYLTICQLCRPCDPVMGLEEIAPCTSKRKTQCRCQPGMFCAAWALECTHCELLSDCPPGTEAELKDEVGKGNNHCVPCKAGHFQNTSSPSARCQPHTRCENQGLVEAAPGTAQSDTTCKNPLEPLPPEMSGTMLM
T3 sequence (P50284 31-223): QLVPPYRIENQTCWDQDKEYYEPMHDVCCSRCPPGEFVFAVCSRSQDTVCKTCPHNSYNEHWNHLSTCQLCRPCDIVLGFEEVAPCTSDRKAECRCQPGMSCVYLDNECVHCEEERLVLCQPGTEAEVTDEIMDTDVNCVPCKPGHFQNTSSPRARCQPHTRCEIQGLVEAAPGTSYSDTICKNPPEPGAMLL

For one experiment, the target named is T1, human HVEM extracellular domain fused …. Put plainly: phage ELISA. As to the method:
(§1) Individual clones from the fourth selection round were grown in 96-well deep well blocks in 100 μl of 2YT broth supplemented with 50 μg/ml ampicillin at 37° C. and 220 rpm for 5 hours. Then, 5 μl of helper phages were added to each well and incubated at 37° C. for 30 minutes. After centrifuging at 3,000 rpm for 10 minutes, the cells were resuspended and grown overnight in 150 μl/well of 2YT broth supplemented with 50 μg/ml ampicillin and 50 μg/ml kanamycin.
(§2) For the ELISA screening, 96-well ELISA plates were coated with target proteins (1 μg/ml in PBS) at 4° C. overnight and then blocked with 2% BSA for 2 hours at room temperature. The supernatant containing phage particles was added to the plates and incubated at room temperature for 1 hour. After incubation, the plates were washed five times with PBST. HRP (horseradish peroxidase) conjugated anti-M13 antibody (Sino Biological, China) was added to the wells and incubated at room temperature for 1 hour. Following another round of washing five times with PBST, 50 μl of TMB (3,3′, 5,5″-tetramethylbenzidine, #34029, ThemoFisher) was added to each well. After 5 minutes, the reaction was stopped by adding 50 μl stop solution (#C1058, Solarbio, China). The absorbance at 450 nm (OD450) was measured using a plate reader (SpectraMax M5, Molecule Devices). Wells coated with BSA were used as negative controls. Phage clones with an ELISA score ratio (target/BSA)>3 were considered positive clones.
Background: In an ELISA, binding on a coated surface is turned into a signal by an enzyme label.
Turning to B1, the binding result is given as “binds”.
Turning to B2, the binding result was “binds”.
Still for that read-out and setting: next, B3: “binds”.

For a further experiment, the target named is T2, mouse HVEM extracellular domain fused …. Put plainly: phage ELISA. How it is done: as §1, §2
Turning to B4, the binding result is “binds”.
Turning to B5, the binding result is listed as “binds”.
The same measure, in the same setting: with B6 the entry was “binds”; with B7, “binds”; with B8, “binds”.
The same measure, in the same setting: with B9 the entry was “binds”; with B10, “binds”.
Consider B1, for which the binding result was “binds”.
Same read-out and setting: next, B11: “binds”.
As to B2, the binding result is reported as “binds”.
Same read-out and setting: next, B12: “binds”; B13: “binds”.
Still for that read-out and setting: with B14 the entry was “binds”; with B15, “binds”; with B16, “binds”.
On to B17, for which the binding result is reported as “binds”.
Consider B18, for which the binding result was “binds”.
For B19, the binding result is on record as “binds”.
Take B20: the binding result was “binds”.
The same measure, in the same setting: next, B21: “binds”; B3: “binds”.

A further experiment has as its target T3, mouse LTβR extracellular domain fused with an Fc fragment at the C-terminus (mouse, UniProt P50284 31-223).
T3 construct: extracellular domain; Bought; also called mLTβR; not shown: Fc fragment at the C-terminus
Put plainly: phage ELISA. How it is done:
as §1, §2
Regarding B6, the binding result was “binds”.
Take B9: the binding result is on record as “binds”.
B17: the binding result is on record as “binds”.

The next experiment addresses T1, human HVEM extracellular domain fused …. Put plainly: ELISA on coated target-Fc. As to the method:
(§3) Nunc MaxiSorp 96-well plates (Thermofisher) were coated with target proteins (1 μg/ml), and then blocked with 2% BSA-PBS buffer for one hour. Serial dilutions of the LIGHT muteins were added with a maximum concentration of 200 ng/ml. The plates were incubated for one hour, washed four times with PBST, and then incubated with mouse anti-His tag antibody (#105327, Sino Biological) for 1 hour. The plates were further incubated with HRP-conjugated goat anti-mouse secondary antibody (#SSA006, Sino Biological) before being washed three times with PBST and treated with TMB substrate (#34029, ThermoFisher). The plates were read at 450 nm on a SpectraMax M5 microplate reader (Molecule Devices). The ELISA results were analyzed using GraphPad Prism 9.0 software and the EC50s (half maximal effective concentration) were summarized in Table 5-1 and Table 5-2.
One may read the EC50 as the midpoint of the concentration-response curve. A lower EC50 goes with higher potency in that assay. In the case of B4, the midpoint of the response, the EC50, lay at 0.0467 µg/mL.
As to B5, the EC50 stood at 0.0428 µg/mL.
Still for that read-out and setting: with B6 the figure was 0.0256 µg/mL.
On the same count and under the same terms, with B22 the figure was 0.0681 µg/mL; with B7, 0.0496 µg/mL.
On the same count and under the same terms, next, B8: 0.0738 µg/mL; B9: 0.0503 µg/mL; B10: 0.0511 µg/mL.
B11 displayed an EC50 of 0.0484 µg/mL.
Molecule B12 registered a 50% effective concentration (EC50) of 0.0632 µg/mL.
As to B13, a half-maximal response (EC50) required 0.0422 µg/mL.
Still for that read-out and setting: next, B14: 0.0504 µg/mL; B23: 0.0447 µg/mL; B15: 0.157 µg/mL.
As for B16, a half-maximal response (EC50) required 0.0542 µg/mL.
Take B24: the midpoint of the response, the EC50, lay at 0.03 µg/mL.
For B17, it took 0.0978 µg/mL to reach a half-maximal effect (EC50).
As for B18, the EC50 was 0.0873 µg/mL.
Turning to B19, the EC50 came out at 0.0471 µg/mL.
Same read-out and setting: with B20 the figure was 0.0597 µg/mL; with B21, 0.0588 µg/mL.

A further experiment concerns the target T4, human LTβR extracellular domain fused with an Fc fragment at the C-terminus (human, UniProt P36941 31-227).
T4 construct: extracellular domain; Bought; also called hLTβR; not shown: Fc fragment at the C-terminus
Put plainly: ELISA on coated target-Fc. As to the method: as §3
Turning to B4, a half-maximal response (EC50) required 0.0441 µg/mL.
Still for that read-out and setting: next, B5: 0.0452 µg/mL.
On the same count and under the same terms, with B6 the figure was 0.0612 µg/mL; with B7, 0.0521 µg/mL; with B8, 0.16 µg/mL.
On the same count and under the same terms, with B9 the figure was 0.0959 µg/mL.
As for B10, the half-maximal effective concentration (EC50) stood at 0.0805 µg/mL.
The same measure, in the same setting: with B1 the figure was 0.247 µg/mL; with B11, 0.0727 µg/mL; with B2, 0.756 µg/mL.
On to B12, for which the binding result is “binds”.
Regarding B13, it took 0.0715 µg/mL to reach a half-maximal effect (EC50).
The same measure, in the same setting: with B14 the figure was 0.0827 µg/mL; with B23, 0.0894 µg/mL.
For the molecule B16, the binding result is given as “binds”.
Molecule B17 came in with an EC50 of 0.0675 µg/mL.
Same read-out and setting: with B18 the figure was 0.0811 µg/mL; with B19, 0.0686 µg/mL.
Turning to B20, the EC50 was 0.0748 µg/mL.
Same read-out and setting: with B21 the figure was 0.0892 µg/mL.
Still for that read-out and setting: with B3 the figure was 0.228 µg/mL.

Another experiment concerns the target T3, mouse LTβR extracellular domain fused …. Put plainly: ELISA on coated target-Fc. As to the method: as §3
Take B4: a half-maximal response (EC50) required 0.0804 µg/mL.
The same measure, in the same setting: next, B5: 0.0209 µg/mL; B22: 0.468 µg/mL.
With B7, the binding result is on record as “binds”.
The same measure, in the same setting: next, B8: “binds”.
With B10, it took 0.0442 µg/mL to reach a half-maximal effect (EC50).
Molecule B1 displayed an EC50 of 0.0632 µg/mL.
Same read-out and setting: next, B11: 0.0483 µg/mL.
With B2, the 50% effective concentration (EC50) came out at 0.42 µg/mL.
Turning to B12, the binding result is given as “binds”.
B13 gave an EC50 of 0.134 µg/mL.
On the same count and under the same terms, with B14 the figure was 0.0642 µg/mL.
B23 gave an EC50 of 0.0413 µg/mL.
In turn, B16 yielded an EC50 of 0.0323 µg/mL.
B24 showed an EC50 of 0.0249 µg/mL.
The molecule B18 came in with an EC50 of 0.256 µg/mL.
The same measure, in the same setting: next, B19: 0.0624 µg/mL.
Same read-out and setting: with B20 the figure was 0.139 µg/mL; with B21, 0.0916 µg/mL.
In turn, B3 had an EC50 of 0.0706 µg/mL.
